Biological target: DNMT3B MTase domain WT (human, UniProt Q9UBC3 569-853)
Test: ITC; 5 C; ITC: 20 mM Tris-HCl pH 7.2, 200 mM NaCl, 5% glycerol, 2 mM b-mercaptoethanol, 5 C; EMSA: 50 mM Tris-HCl pH 8.0, 25% glycerol, 8% glucose, 2 mM DTT, 0.1 mg/mL BSA, 30 min, gel in 0.5x TBE at 4 C
Conditions: protein: recombinant; tags: His6-MBP removed by TEV; (only upper strand given)

B1: 24-mer DNA duplex (GAC)8 (dsDNA)
DNA 1: GACGACGACGACGACGACGACGAC
DNA 2: GTCGTCGTCGTCGTCGTCGTCGTC
  Kd: 4 ± 0.1 µM

Reference: publication PMC9307851
